Consider 1 molecule from US20080181891A1 (Pfizer, published 2008).

In general, Kd refers to the constant that tells how readily two partners part at equilibrium. One may read the IC50 as the point on the concentration scale where inhibition reaches its midpoint.

One test deals with T1, cynomolgus monkey IGF-IR (cynomolgus monkey, UniProt G7P9I7 31-1343).
T1 construct: whole, on cells; also called IGF-IR on cynomolgus tissue culture cells
The test is described as follows: flow cytometry, biotinylated antibody on cynomolgus tissue culture cells, half maximal binding. As for the experimental part: (§1) FACS analysis was performed to determine the affinity of the antibody of the invention for IGF-IR from other animals, particularly the old world monkeys described above. Aliquots of human and monkey cells (cynomolgus) (5×10⁵) were incubated for 1 hour on ice with increasing concentrations of biotinylated anti-IGF-IR antibodies of the invention. The samples were incubated for 30 minutes on ice with streptavidin-conjugated RPE (phycoerythrin). Binding was measured by flow cytometry and analyzed with the histograms of fluorescence intensity (FI2-H) versus cell number (Counts) using CellQuest software. Binding (Kd) was calculated for each antibody from graphs of mean fluorescence intensity versus antibody concentration. In most experiments, binding was measured in cultured human MCF-7 cells and cynomolgus tissue culture cells. Depletion of the antibody was controlled by measuring binding over a range of cell concentrations.
In general terms: In flow cytometry, cells or beads pass a laser one at a time.

The target in the next test is T2, mouse IGF-IR (mouse, UniProt Q60751 31-1373).
T2 construct: whole, on cells
The test is described as follows: cells treated with antibody, IGF-I stimulation, immunoprecipitation of IGF-IR and Western blot. As to the method: To perform immunoprecipitation experiments, cells were plated in DMEM high glucose media supplemented with L-glutamine (0.29 mg/ml), 10% heat-inactivated FBS, and 500 μg/ml each of geneticin, penicillin and streptomycin to 50% confluence in T25 flasks. 100 μl of an antibody of the invention in Hank's buffered saline solution (HBSS; Gibco BRL) at a concentration of 1 μg/ml was added. The plates were incubated for 30 minutes at 37° C. in an incubator and then stimulated cells with IGF-I at 100 ng/ml for 10 minutes at room temperature. The cells were lysed in RIPA buffer (Harlow and Lane, supra) and immunoprecipitated the IGF-IR with 2 μg of pan-specific SC-713 anti-IGF-IR antibody (Santa Cruz) plus protein A agarose beads for 1 hour at 4° C. The beads were pelleted and washed three times with PBS/T (PBS+0.1% Tween-20) and then boiled in 40 μl Laemmli buffer containing 5% ME.
The samples prepared as described above were then analyzed by Western blot. 12 μl of each sample were loaded per lane on 4-10% gradient Novex™ gels run with 1×MES buffer (Novex™). Gels were run at 150V for 1 hour or at 200V for approximately 30 minutes. The gel was transferred to a membrane in Novex™ transfer buffer with 10% methanol either overnight at 100 mA or for 1-1.5 hours at 250 mA. […]

The target in test [1] is T3, human insulin-like growth factor I receptor (IGF-IR) (human, UniProt P08069 31-1367).
T3 construct: whole, on cells; also called IGF-1R; human IGF-IR
The test is described as follows: competition with [125I]-IGF-I for binding to IGF-IR-transfected NIH-3T3 cells, scintillation counting. As to the method:
[…] experiments were performed to quantitate the ability of the antibody of the invention to inhibit IGF-I binding to IGF-IR in a cell-based assay. IGF-IR-transfected NIH-3T3 cells (5×10⁴/ml) were plated in 100 μl of DMEM high glucose media supplemented with L-glutamine (0.29 mg/ml), 10% heat-inactivated FBS, and 500 μg/ml each of geneticin, penicillin and streptomycin in 96-well U-bottom plates. The plates were incubated at 37° C., 5% CO₂ overnight to allow cells to attach. The media was decanted from the plates and replaced with 100 μl fresh media per well. For testing, the antibody was diluted in assay media (DMEM high glucose media supplemented with L-glutamine, 10% heat-inactivated FBS, 200 μg/ml BSA and 500 μg/ml each of geneticin, penicillin and streptomycin) to the desired final concentration. All samples were performed in triplicate. The plates were incubated at 37° C. for ten minutes. The [¹²⁵I]-IGF-I was diluted to a concentration of 1 μCi/ml in assay media and added 50 μl per well of the plate. As a control for background radioactivity, cold IGF-I was added to a final concentration of 100 ng/ml. […] The samples were transferred to a scintillation plate, 150 μl OptiPhase Supermix was added and the signal was read using a Wallace MicroBeta counter. […]

The target of test [2] is T3, human insulin-like growth factor I …. The test can be described thus: flow cytometry, biotinylated antibody on human cells (MCF-7), half maximal binding. As for the experimental part:
as §1

The target is the same in test [3]. The test can be described thus: cell-based or functional assay.

T3 sequence (P08069 31-1367): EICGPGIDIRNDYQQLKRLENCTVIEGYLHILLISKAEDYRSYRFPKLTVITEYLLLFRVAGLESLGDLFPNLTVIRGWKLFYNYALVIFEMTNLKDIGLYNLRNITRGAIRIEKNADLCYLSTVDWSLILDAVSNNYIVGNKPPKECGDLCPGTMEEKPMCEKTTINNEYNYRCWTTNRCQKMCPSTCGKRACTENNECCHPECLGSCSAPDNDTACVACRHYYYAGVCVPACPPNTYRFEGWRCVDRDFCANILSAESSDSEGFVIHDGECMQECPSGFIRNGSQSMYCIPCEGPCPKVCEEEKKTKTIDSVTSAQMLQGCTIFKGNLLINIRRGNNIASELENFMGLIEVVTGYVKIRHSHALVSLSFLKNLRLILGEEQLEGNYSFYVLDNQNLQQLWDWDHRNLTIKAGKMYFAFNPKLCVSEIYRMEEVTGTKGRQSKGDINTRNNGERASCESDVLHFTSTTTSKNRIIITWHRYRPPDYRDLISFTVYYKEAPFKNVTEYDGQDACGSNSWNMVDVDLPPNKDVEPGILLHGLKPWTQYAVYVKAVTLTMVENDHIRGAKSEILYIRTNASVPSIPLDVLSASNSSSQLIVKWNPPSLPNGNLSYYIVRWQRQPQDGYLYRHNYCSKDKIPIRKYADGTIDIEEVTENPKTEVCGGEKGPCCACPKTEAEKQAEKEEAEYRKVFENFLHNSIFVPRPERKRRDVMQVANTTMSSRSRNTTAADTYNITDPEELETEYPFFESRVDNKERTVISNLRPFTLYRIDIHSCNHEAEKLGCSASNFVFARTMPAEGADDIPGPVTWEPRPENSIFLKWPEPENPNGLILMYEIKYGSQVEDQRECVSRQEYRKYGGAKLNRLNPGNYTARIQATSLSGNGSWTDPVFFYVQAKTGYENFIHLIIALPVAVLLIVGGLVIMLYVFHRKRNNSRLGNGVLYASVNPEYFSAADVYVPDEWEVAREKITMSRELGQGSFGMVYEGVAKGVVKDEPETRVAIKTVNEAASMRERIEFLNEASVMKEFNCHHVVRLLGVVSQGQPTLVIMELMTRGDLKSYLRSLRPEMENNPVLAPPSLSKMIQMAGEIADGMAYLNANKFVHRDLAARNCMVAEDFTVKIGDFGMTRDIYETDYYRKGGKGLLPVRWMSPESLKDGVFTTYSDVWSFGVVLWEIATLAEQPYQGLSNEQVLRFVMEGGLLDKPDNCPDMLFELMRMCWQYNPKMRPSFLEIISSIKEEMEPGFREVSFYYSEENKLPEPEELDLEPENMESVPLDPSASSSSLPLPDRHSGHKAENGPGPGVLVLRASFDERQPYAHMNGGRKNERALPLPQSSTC
T1 sequence (G7P9I7 entry or part of it): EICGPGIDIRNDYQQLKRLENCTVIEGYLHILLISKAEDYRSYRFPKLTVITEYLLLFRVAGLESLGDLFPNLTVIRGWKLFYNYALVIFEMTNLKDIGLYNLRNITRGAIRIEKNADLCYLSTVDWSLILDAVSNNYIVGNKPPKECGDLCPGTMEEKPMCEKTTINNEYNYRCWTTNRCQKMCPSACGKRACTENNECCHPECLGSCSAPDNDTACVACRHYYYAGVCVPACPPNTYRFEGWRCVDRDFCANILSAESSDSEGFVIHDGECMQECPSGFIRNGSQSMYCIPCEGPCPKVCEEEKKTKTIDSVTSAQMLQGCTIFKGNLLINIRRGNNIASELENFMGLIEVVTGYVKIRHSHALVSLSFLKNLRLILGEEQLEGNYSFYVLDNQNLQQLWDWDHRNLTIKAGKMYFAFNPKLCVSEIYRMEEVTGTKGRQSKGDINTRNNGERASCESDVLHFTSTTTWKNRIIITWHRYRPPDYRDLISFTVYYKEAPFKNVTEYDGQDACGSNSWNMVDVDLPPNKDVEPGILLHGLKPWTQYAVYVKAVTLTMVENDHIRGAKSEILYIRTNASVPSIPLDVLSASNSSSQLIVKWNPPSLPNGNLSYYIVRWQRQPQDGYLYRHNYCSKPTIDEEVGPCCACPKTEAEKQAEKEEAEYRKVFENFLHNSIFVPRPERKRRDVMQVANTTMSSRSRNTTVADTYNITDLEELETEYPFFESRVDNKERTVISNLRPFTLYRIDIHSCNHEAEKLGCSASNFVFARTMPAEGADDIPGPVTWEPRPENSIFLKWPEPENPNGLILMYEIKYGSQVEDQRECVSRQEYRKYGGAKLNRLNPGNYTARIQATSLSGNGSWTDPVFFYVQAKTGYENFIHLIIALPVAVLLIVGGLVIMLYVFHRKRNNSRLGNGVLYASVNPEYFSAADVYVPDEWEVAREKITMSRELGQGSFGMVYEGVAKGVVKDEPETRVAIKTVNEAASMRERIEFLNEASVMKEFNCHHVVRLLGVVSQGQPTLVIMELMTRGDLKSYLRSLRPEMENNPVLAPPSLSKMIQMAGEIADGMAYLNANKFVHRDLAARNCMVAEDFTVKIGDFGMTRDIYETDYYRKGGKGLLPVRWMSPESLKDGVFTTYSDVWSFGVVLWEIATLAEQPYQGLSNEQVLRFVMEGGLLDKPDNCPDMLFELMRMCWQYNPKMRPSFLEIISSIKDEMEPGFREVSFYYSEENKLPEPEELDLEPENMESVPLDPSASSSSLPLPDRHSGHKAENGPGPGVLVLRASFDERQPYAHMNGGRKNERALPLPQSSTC
T2 sequence (Q60751 31-1373): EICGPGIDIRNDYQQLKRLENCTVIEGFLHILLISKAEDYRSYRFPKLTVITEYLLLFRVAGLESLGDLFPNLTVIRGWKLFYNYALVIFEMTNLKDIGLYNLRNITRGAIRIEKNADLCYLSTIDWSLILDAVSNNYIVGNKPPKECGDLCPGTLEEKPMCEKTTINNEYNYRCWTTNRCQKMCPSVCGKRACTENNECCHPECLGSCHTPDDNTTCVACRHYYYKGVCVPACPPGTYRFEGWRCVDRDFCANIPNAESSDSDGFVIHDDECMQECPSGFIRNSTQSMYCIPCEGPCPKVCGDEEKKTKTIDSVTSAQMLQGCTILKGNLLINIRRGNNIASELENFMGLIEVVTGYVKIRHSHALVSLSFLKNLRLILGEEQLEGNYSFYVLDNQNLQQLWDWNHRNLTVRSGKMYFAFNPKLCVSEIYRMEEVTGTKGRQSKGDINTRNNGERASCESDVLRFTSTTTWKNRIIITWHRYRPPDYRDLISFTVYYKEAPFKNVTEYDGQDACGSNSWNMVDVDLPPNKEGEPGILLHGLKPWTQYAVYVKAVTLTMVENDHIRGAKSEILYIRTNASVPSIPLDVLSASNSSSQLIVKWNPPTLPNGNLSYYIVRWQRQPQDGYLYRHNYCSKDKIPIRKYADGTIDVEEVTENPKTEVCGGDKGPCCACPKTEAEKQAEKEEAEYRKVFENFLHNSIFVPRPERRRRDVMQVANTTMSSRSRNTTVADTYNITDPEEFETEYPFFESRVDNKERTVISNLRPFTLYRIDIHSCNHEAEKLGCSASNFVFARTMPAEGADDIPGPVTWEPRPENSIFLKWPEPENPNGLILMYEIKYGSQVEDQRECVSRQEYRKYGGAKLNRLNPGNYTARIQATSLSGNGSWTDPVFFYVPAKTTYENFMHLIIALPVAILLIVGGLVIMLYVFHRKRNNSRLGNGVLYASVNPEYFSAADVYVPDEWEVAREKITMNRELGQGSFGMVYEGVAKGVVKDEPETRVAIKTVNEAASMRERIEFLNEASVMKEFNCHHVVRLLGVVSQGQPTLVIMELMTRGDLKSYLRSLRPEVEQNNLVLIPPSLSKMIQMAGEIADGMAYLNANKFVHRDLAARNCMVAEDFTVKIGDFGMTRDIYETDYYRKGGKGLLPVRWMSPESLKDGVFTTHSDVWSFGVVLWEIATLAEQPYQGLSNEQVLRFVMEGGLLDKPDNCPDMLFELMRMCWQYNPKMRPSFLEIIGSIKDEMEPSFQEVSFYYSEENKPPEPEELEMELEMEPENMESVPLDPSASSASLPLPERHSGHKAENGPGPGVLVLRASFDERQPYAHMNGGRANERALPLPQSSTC

B1: anti-IGF-IR antibody 2.12.1fx (antibody, human IgG2, kappa, V domains shown)
VH: QVQLVESGGGLVKPGGSLRLSCAASGFTFSDYYMSWIRQAPGKGLEWVSYISSSGSTRDYADSVKGRFTISRDNAKNSLYLQMNSLRAEDTAVYYCARDGVETTFYYYYYGMDVWGQGTTVTVSS
VL: DIQMTQSPSSLSASVGDRVTITCRASQDIRRDLGWYQQKPGKAPKRLIYAASRLQSGVPSRFSGSGSGTEFTLTISSLQPEDFATYYCLQHNNYPRTFGQGTKVEIKR
notes: also called the antibody of the invention; the antibody of this invention
In the case of B1, the Kd (with cynomolgus monkey IGF-IR; in test [2]) was 0.1 µg/mL each time. Also, the binding result with mouse IGF-IR is “no binding (tested: 1 µg/ml)”. For the same molecule, the 50% inhibitory concentration (IC50) in test [1] amounted to 0.4 µg/mL. Further, the “IC50 of inhibition of IGF-I-induced tyrosine phosphorylation of IGF-IR (ELISA on lysates of IGF-IR-transfected NIH-3T3 cells)” value in test [3] turned out to be 0.42 µg/mL.
